# Test system: NCCc1ccc(O)c(O)c1
# Assay: cells, lysate or membranes
# Conditions: other: [3H]dopamine uptake at 1 min, HEK293 cells expressing hMATE2-K, mean ± S.E., n=3; pH 7.4; 37.0 °C
# Sequence of hMATE2-K (Homo sapiens) (chain, as listed by the source): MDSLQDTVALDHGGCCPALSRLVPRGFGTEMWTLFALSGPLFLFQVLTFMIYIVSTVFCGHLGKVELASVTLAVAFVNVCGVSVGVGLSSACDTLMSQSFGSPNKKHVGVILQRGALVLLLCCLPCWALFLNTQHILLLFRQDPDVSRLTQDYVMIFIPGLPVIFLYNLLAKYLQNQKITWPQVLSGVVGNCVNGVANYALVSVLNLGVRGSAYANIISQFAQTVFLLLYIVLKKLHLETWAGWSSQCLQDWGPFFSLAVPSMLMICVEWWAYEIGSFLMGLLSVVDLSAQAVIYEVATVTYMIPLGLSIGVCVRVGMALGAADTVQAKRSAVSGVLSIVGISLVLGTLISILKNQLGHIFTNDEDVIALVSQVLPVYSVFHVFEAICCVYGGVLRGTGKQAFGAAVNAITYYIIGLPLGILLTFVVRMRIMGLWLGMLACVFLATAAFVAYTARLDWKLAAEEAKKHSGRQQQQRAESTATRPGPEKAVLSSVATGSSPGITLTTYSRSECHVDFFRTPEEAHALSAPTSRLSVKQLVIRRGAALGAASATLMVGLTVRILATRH
substance,measurement,value
hMATE2-K (Homo sapiens),Km,2480 ± 650 µM

# Reference: article PMC5000626, “Urinary Dopamine as a Potential Index of the Transport Activity of Multidrug and Toxin Extrusion in the Kidney” (International Journal of Molecular Sciences, 2016)
